B1: G2/M phase-specific E3 ubiquitin-protein ligase (Homo sapiens), Q7L622 (parent)
chain: MNESKPGDSQNLACVFCRKHDDCPNKYGEKKTKEKWNLTVHYYCLLMSSGIWQRGKEEEGVYGFLIEDIRKEVNRASKLKCCVCKKNGASIGCVAPRCKRSYHFPCGLQRECIFQFTGNFASFCWDHRPVQIITSNNYRESLPCTICLEFIEPIPSYNILRSPCCKNAWFHRDCLQVQAINAGVFFFRCTICNNSDIFQKEMLRMGIHIPEKDASWELEENAYQELLQHYERCDVRRCRCKEGRDYNAPDSKWEIKRCQCCGSSGTHLACSSLRSWEQNWECLECRGIIYNSGEFQKAKKHVLPNSNNVGITDCLLEESSPKLPRQSPGSQSKDLLRQGSKFRRNVSTLLIELGFQIKKKTKRLYINKANIWNSALDAFRNRNFNPSYAIEVAYVIENDNFGSEHPGSKQEFLSLLMQHLENSSLFEGSLSKNLSLNSQALKENLYYEAGKMLAISLVHGGPSPGFFSKTLFNCLVYGPENTQPILDDVSDFDVAQIIIRINTATTVADLKSIINECYNYLELIGCLRLITTLSDKYMLVKDILGYHVIQRVHTPFESFKQGLKTLGVLEKIQAYPEAFCSILCHKPESLSAKILSELFTVHTLPDVKALGFWNSYLQAVEDGKSTTTMEDILIFATGCSSIPPAGFKPTPSIECLHVDFPVGNKCNNCLAIPITNTYKEFQENMDFTIRNTLRLEKEESSHYIGH
partner: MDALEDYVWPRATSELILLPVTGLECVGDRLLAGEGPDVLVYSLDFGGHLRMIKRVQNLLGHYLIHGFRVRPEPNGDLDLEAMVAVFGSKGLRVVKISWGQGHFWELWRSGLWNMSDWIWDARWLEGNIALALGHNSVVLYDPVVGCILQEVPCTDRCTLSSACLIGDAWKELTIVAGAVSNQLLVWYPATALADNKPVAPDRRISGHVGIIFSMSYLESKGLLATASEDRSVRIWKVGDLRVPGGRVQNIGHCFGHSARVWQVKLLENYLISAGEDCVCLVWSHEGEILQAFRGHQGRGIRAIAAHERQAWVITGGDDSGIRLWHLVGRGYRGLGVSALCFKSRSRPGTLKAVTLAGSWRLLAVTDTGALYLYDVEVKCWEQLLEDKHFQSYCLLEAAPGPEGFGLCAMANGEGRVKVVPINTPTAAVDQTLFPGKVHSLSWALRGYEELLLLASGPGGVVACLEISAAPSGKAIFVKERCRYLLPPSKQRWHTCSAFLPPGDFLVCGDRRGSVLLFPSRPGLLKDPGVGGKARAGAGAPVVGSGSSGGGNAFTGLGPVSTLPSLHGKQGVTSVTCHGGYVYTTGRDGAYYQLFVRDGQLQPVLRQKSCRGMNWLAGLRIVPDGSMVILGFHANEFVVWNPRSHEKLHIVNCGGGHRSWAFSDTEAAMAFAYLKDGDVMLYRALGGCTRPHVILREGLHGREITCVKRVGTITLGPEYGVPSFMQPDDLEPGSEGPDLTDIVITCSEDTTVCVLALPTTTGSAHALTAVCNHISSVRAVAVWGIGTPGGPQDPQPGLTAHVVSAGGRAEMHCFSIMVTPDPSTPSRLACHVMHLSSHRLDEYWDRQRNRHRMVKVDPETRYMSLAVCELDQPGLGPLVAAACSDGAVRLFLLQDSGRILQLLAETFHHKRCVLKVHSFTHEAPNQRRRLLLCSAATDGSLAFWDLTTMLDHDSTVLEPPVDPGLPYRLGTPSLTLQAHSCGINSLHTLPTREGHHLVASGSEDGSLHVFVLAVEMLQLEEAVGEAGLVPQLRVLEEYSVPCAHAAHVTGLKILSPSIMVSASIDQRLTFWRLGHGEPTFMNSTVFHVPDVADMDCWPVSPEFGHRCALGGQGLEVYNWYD
B2: Kinesin-associated protein 3 (Homo sapiens), Q92845 (parent)
chain: MQGEDARYLKRKVKGGNIDVHPSEKALIVHYEVEATILGEMGDPMLGERKECQKIIRLKSLNANTDITSLARKVVEECKLIHPSKLNEVEQLLYYLQNRRDSLSGKEKKEKSSKPKDPPPFEGMEIDEVANINDMDEYIELLYEDIPDKVRGSALILQLARNPDNLEELLLNETALGALARVLREDWKQSVELATNIIYIFFCFSSFSQFHGLITHYKIGALCMNIIDHELKRHELWQEELSKKKKAVDEDPENQTLRKDYEKTFKKYQGLVVKQEQLLRVALYLLLNLAEDTRTELKMRNKNIVHMLVKALDRDNFELLILVVSFLKKLSIFMENKNDMVEMDIVEKLVKMIPCEHEDLLNITLRLLLNLSFDTGLRNKMVQVGLLPKLTALLGNDNYKQIAMCVLYHISMDDRFKSMFAYTDCIPQLMKMLFECSDERIDLELISFCINLAANKRNVQLICEGNGLKMLMKRALKFKDPLLMKMIRNISQHDGPTKNLFIDYVGDLAAQISNDEEEEFVIECLGTLANLTIPDLDWELVLKEYKLVPYLKDKLKPGAAEDDLVLEVVIMIGTVSMDDSCAALLAKSGIIPALIELLNAQQEDDEFVCQIIYVFYQMVFHQATRDVIIKETQAPAYLIDLMHDKNNEIRKVCDNTLDIIAEYDEEWAKKIQSEKFRWHNSQWLEMVESRQMDESEQYLYGDDRIEPYIHEGDILERPDLFYNSDGLIASEGAISPDFFNDYHLQNGDVVGQHSFPGSLGMDGFGQPVGILGRPATAYGFRPDEPYYYGYGS
partner: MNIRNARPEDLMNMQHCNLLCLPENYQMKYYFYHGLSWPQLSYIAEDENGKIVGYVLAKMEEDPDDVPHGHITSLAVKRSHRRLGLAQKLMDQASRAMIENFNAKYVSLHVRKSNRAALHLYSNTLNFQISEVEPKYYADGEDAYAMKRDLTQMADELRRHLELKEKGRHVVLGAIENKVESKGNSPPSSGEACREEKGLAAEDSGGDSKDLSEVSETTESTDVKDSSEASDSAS
B3: Myotubularin-related protein 9 (Homo sapiens), Q96QG7 (parent)
chain: MEFAELIKTPRVDNVVLHRPFYPAVEGTLCLTGHHLILSSRQDNTEELWLLHSNIDAIDKRFVGSLGTIIIKCKDFRIIQLDIPGMEECLNIASSIEALSTLDSITLMYPFFYRPMFEVIEDGWHSFLPEQEFELYSSATSEWRLSYVNKEFAVCPSYPPIVTVPKSIDDEALRKVATFRHGGRFPVLSYYHKKNGMVIMRSGQPLTGTNGRRCKEDEKLINATLRAGKRGYIIDTRSLNVAQQTRAKGGGFEQEAHYPQWRRIHKSIERYHILQESLIKLVEACNDQTHNMDRWLSKLEASNWLTHIKEILTTACLAAQCIDREGASILIHGTEGTDSTLQVTSLAQIILEPRSRTIRGFEALIEREWLQAGHPFQQRCAQSAYCNTKQKWEAPVFLLFLDCVWQILRQFPCSFEFNENFLIMLFEHAYASQFGTFLGNNESERCKLKLQQKTMSLWSWVNQPSELSKFTNPLFEANNLVIWPSVAPQSLPLWEGIFLRWNRSSKYLDEAYEEMVNIIEYNKELQAKVNILRRQLAELETEDGMQESP
partner: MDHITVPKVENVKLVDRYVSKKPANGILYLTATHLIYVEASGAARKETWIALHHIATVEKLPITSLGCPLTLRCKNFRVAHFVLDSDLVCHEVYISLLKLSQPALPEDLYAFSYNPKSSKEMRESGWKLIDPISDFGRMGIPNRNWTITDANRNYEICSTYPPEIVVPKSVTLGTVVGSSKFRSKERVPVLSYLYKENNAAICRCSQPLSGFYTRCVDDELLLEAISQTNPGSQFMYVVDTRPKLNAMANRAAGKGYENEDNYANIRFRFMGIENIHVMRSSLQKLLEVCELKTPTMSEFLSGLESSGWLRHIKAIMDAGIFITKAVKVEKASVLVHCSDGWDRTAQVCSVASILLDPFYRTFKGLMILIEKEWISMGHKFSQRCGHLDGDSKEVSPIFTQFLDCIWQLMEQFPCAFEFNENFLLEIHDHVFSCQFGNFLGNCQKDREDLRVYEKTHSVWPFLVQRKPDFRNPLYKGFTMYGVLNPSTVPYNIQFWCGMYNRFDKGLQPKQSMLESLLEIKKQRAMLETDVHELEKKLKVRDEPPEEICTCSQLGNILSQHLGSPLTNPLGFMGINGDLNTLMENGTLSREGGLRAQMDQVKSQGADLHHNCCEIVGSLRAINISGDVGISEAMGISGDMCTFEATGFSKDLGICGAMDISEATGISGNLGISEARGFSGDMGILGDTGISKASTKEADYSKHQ
B4: Zinc finger protein Aiolos (Homo sapiens), Q9UKT9 (parent)
chain: MEDIQTNAELKSTQEQSVPAESAAVLNDYSLTKSHEMENVDSGEGPANEDEDIGDDSMKVKDEYSERDENVLKSEPMGNAEEPEIPYSYSREYNEYENIKLERHVVSFDSSRPTSGKMNCDVCGLSCISFNVLMVHKRSHTGERPFQCNQCGASFTQKGNLLRHIKLHTGEKPFKCHLCNYACQRRDALTGHLRTHSVEKPYKCEFCGRSYKQRSSLEEHKERCRTFLQSTDPGDTASAEARHIKAEMGSERALVLDRLASNVAKRKSSMPQKFIGEKRHCFDVNYNSSYMYEKESELIQTRMMDQAINNAISYLGAEALRPLVQTPPAPTSEMVPVISSMYPIALTRAEMSNGAPQELEKKSIHLPEKSVPSERGLSPNNSGHDSTDTDSNHEERQNHIYQQNHMVLSRARNGMPLLKEVPRSYELLKPPPICPRDSVKVINKEGEVMDVYRCDHCRVLFLDYVMFTIHMGCHGFRDPFECNMCGYRSHDRYEFSSHIARGEHRALLK
partner: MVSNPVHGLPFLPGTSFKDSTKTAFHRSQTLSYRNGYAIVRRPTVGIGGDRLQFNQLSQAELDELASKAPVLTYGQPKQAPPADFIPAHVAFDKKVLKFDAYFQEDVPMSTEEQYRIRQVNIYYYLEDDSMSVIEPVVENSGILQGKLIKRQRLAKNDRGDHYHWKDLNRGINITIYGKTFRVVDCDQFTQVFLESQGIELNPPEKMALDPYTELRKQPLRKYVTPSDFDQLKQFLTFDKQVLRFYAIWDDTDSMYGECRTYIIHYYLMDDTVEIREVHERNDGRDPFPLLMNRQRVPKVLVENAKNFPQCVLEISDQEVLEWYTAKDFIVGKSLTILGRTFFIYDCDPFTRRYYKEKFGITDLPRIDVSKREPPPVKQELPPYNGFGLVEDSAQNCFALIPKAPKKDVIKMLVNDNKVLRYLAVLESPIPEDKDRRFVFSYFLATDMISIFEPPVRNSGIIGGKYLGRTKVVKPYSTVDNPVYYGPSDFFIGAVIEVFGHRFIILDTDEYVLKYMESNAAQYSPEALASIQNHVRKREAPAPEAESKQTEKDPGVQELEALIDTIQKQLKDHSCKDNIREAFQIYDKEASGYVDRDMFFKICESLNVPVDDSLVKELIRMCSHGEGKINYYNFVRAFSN

Experimental findings from IntAct's records for PubMed 31515488 are described below.

In one assay the parent is B1. As to conditions: with wdr6_human WDR6, Q9NNW5.
As to P328L, the “effect of a mutation on the interaction” value is “with no effect”.

A further assay covers variants of B2. To be noted: with naa10_human NAA10, P41227.
F434C: the “effect of a mutation on the interaction” value is recorded as “with no effect”.
As for E167K, the “effect of a mutation on the interaction” value is reported as “with no effect”.

The variants in the next assay derive from B3. To be noted: with mtmr8_human MTMR8, Q96EF0.
With S126C, the “effect of a mutation on the interaction” value is reported as “with no effect”.

The next assay covers variants of B3. To be noted: with mtmr8_human MTMR8, Q96EF0. This is another data set of the same source.
For the variant F127I, the “effect of a mutation on the interaction” value is recorded as “with no effect”.

The next assay covers variants of B4. To be noted: with efhc1_human EFHC1, Q5JVL4.
For the variant A24V, the “effect of a mutation on the interaction” value is listed as “with no effect”.
